Measured values published in paper PMC9355967.

What was measured:
[1] = molecular target: FLAG-tagged full-length AFDN (mouse) (UniProt Q9QZQ1); experiment: co-IP; HEK 293T cells co-transfected; anti-FLAG IP on Protein G sepharose, Western blot with anti-GFP or antibodies to the endogenous protein; TX100 buffer (20 mM Tris pH 7.5, 150 mM NaCl, 1% NP-40, 1% Triton X-100, 5 mM MgCl2 for GTPases); also after FastAP phosphatase treatment of lysates; with or without co-expressed GTPases (densitometry in Fig. 4g)
[2] = molecular target: purified AFDN FHA domain Δex9 (mouse); experiment: ITC; MicroCal ITC200, 25 °C, 20 mM Tris-HCl pH 7.5, 150 mM NaCl, 1 mM DTT

FLAG-tagged full-length AFDN (mouse), sequence (Q9QZQ1 whole entry, the tested form may be a part): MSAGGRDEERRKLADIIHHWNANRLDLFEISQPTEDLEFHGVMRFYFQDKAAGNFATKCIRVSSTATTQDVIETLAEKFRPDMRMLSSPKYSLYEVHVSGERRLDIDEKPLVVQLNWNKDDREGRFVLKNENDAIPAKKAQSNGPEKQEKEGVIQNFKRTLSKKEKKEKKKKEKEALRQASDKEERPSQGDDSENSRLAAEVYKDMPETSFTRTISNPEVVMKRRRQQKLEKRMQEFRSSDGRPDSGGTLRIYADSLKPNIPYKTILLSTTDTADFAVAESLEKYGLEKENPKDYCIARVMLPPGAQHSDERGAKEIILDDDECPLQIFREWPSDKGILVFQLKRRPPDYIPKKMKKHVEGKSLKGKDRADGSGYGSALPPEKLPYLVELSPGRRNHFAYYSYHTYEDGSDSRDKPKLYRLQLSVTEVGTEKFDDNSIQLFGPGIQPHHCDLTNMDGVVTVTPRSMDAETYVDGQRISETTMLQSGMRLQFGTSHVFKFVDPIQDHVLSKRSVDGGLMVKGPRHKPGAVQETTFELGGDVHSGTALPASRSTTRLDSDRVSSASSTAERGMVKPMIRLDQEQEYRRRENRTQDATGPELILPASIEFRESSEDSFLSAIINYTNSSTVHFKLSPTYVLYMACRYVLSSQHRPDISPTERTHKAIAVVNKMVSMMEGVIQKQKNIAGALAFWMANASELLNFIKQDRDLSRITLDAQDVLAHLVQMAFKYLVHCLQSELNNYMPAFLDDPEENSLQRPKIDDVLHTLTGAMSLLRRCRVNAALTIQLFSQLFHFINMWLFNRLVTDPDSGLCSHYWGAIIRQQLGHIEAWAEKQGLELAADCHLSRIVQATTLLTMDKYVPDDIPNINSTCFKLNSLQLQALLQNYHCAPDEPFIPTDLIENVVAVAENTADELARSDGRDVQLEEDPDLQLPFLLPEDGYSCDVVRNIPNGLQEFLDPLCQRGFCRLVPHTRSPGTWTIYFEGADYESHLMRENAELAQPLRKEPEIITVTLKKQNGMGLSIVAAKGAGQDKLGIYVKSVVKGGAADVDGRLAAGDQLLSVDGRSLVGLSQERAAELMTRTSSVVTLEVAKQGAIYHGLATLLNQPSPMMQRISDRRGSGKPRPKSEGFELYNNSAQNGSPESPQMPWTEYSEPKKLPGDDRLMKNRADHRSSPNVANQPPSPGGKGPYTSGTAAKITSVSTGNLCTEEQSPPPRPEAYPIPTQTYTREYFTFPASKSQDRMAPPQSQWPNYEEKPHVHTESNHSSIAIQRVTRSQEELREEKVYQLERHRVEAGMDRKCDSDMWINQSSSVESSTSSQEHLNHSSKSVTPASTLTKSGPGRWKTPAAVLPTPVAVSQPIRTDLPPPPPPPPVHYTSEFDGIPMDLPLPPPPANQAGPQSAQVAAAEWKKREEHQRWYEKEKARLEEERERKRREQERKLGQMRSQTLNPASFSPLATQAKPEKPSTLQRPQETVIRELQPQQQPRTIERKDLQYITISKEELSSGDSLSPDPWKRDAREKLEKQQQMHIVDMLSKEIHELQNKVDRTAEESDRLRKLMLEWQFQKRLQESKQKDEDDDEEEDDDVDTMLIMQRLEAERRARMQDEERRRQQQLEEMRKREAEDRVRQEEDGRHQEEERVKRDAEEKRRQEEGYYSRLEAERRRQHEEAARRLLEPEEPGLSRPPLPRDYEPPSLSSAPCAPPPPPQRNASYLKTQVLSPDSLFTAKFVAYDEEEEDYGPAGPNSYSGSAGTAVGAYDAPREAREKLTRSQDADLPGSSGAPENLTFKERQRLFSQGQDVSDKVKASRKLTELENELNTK
purified SCRIB PDZ1 domain (718-820), sequence (Q14160 718-820): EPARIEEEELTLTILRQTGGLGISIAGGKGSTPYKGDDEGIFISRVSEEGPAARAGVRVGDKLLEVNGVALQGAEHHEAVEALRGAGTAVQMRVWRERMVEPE

fold increase of SCRIB co-precipitated with AFDN, KRAS-G12V co-expressed, against wild-type KRAS [1] [fold] | fold increase of SCRIB co-precipitated with AFDN, RAP1B-G12V co-expressed, against wild-type KRAS [1] [fold] | fold increase of SCRIB co-precipitated with AFDN, RAP2C-G12V co-expressed, against wild-type KRAS [1] [fold] | Kd [2] [µM] | Substance
8 | 1.7 | 2.6 |  | EGFP-tagged full-length SCRIB (from UniProt Q14160 1-1655) (natural protein)
 |  |  | 22.9 | purified SCRIB PDZ1 domain (718-820) (from UniProt Q14160 718-820) (domain or fragment)
